{"source": "paper PMC10540216", "about": "“Activity Guided Azide-methyllysine Photo-trapping for Substrate Profiling of Lysine Demethylases” (Journal of the American Chemical Society, 2023)"}
{"system": "KDM4A-I71AzF", "experiment": "CASI: photo-crosslinking with HEK293T cell extracts, StrepTactin enrichment and LC-MS/MS proteomics;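 further: lysates from HEK293T cells pretreated with a KDM4 inhibitor to raise proteome methylation, affinity-purified after ±UV, gel-resolved, trypsin-digested, with exclusive unique peptides per protein averaged per condition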", "format": "binding, human", "settings": "sheet \"Final results but with 0.01\""}
{"molecule": "DDX1_HUMAN (protein, UniProt Q92499 1-740, looked up) ATP-dependent RNA helicase …: MAAFSEMGVMPEIAQAVEEMDWLLPTDIQAESIPLILGGGDVLMAAETGSGKTGAFSIPVIQIVYETLKDQQEGKKGKTTIKTGASVLNKWQMNPYDRGSAFAIGSDGLCCQSREVKEWHGCRATKGLMKGKHYYEVSCHDQGLCRVGWSTMQASLDLGTDKFGFGFGGTGKKSHNKQFDNYGEEFTMHDTIGCYLDIDKGHVKFSKNGKDLGLAFEIPPHMKNQALFPACVLKNAELKFNFGEEEFKFPPKDGFVALSKAPDGYIVKSQHSGNAQVTQTKFLPNAPKALIVEPSRELAEQTLNNIKQFKKYIDNPKLRELLIIGGVAARDQLSVLENGVDIVVGTPGRLDDLVSTGKLNLSQVRFLVLDEADGLLSQGYSDFINRMHNQIPQVTSDGKRLQVIVCSATLHSFDVKKLSEKIMHFPTWVDLKGEDSVPDTVHHVVVPVNPKTDRLWERLGKSHIRTDDVHAKDNTRPGANSPEMWSEAIKILKGEYAVRAIKEHKMDQAIIFCRTKIDCDNLEQYFIQQGGGPDKKGHQFSCVCLHGDRKPHERKQNLERFKKGDVRFLICTDVAARGIDIHGVPYVINVTLPDEKQNYVHRIGRVGRAERMGLAISLVATEKEKVWYHVCSSRGKGCYNTRLKEDGGCTIWYNEMQLLSEIEEHLNCTISQVEPDIKVPVDEFDGKVTYGQKRAAGGGSYKGHVDILAPTVQELAALEKEAQTSFLHLGYLPNQLFRTF", "Fold change (+UV/-UV)": 1.333}
{"molecule": "XRN2_HUMAN (protein, UniProt Q9H0D6 1-950, looked up) 5'-3' exoribonuclease 2: MGVPAFFRWLSRKYPSIIVNCVEEKPKECNGVKIPVDASKPNPNDVEFDNLYLDMNGIIHPCTHPEDKPAPKNEDEMMVAIFEYIDRLFSIVRPRRLLYMAIDGVAPRAKMNQQRSRRFRASKEGMEAAVEKQRVREEILAKGGFLPPEEIKERFDSNCITPGTEFMDNLAKCLRYYIADRLNNDPGWKNLTVILSDASAPGEGEHKIMDYIRRQRAQPNHDPNTHHCLCGADADLIMLGLATHEPNFTIIREEFKPNKPKPCGLCNQFGHEVKDCEGLPREKKGKHDELADSLPCAEGEFIFLRLNVLREYLERELTMASLPFTFDVERSIDDWVFMCFFVGNDFLPHLPSLEIRENAIDRLVNIYKNVVHKTGGYLTESGYVNLQRVQMIMLAVGEVEDSIFKKRKDDEDSFRRRQKEKRKRMKRDQPAFTPSGILTPHALGSRNSPGSQVASNPRQAAYEMRMQNNSSPSISPNTSFTSDGSPSPLGGIKRKAEDSDSEPEPEDNVRLWEAGWKQRYYKNKFDVDAADEKFRRKVVQSYVEGLCWVLRYYYQGCASWKWYYPFHYAPFASDFEGIADMPSDFEKGTKPFKPLEQLMGVFPAASGNFLPPSWRKLMSDPDSSIIDFYPEDFAIDLNGKKYAWQGVALLPFVDERRLRAALEEVYPDLTPEETRRNSLGGDVLFVGKHHPLHDFILELYQTGSTEPVEVPPELCHGIQGKFSLDEEAILPDQIVCSPVPMLRDLTQNTVVSINFKDPQFAEDYIFKAVMLPGARKPAAVLKPSDWEKSSNGRQWKPQLGFNRDRRPVHLDQAAFRTLGHVMPRGSGTGIYSNAAPPPVTYQGNLYRPLLRGQAQIPKLMSNMRPQDSWRGPPPLFQQQRFDRGVGAEPLLPWNRMLQTQNAAFQPNQYQMLAGPGGYPPRRDDRGGRQGYPREGRKYPLPPPSGRYNWN", "Fold change (+UV/-UV)": 2.5}
{"molecule": "SYAM_HUMAN (protein, UniProt Q5JTZ9 24-985, looked up) Alanine--tRNA ligase, …: GLSHRPLSSEPPAAKASAVRAAFLNFFRDRHGHRLVPSASVRPRGDPSLLFVNAGMNQFKPIFLGTVDPRSEMAGFRRVANSQKCVRAGGHHNDLEDVGRDLSHHTFFEMLGNWAFGGEYFKEEACNMAWELLTQVYGIPEERLWISYFDGDPKAGLDPDLETRDIWLSLGVPASRVLSFGPQENFWEMGDTGPCGPCTEIHYDLAGGVGAPQLVELWNLVFMQHNREADGSLQPLPQRHVDTGMGLERLVAVLQGKHSTYDTDLFSPLLNAIQQGCRAPPYLGRVGVADEGRTDTAYRVVADHIRTLSVCISDGIFPGMSGPPLVLRRILRRAVRFSMEILKAPPGFLGSLVPVVVETLGDAYPELQRNSAQIANLVSEDEAAFLASLERGRRIIDRTLRTLGPSDMFPAEVAWSLSLCGDLGLPLDMVELMLEEKGVQLDSAGLERLAQEEAQHRARQAEPVQKQGLWLDVHALGELQRQGVPPTDDSPKYNYSLRPSGSYEFGTCEAQVLQLYTEDGTAVASVGKGQRCGLLLDRTNFYAEQGGQASDRGYLVRAGQEDVLFPVARAQVCGGFILHEAVAPECLRLGDQVQLHVDEAWRLGCMAKHTATHLLNWALRQTLGPGTEQQGSHLNPEQLRLDVTTQTPLTPEQLRAVENTVQEAVGQDEAVYMEEVPLALTAQVPGLRSLDEVYPDPVRVVSVGVPVAHALDPASQAALQTSVELCCGTHLLRTGAVGDLVIIGDRQLSKGTTRLLAVTGEQAQQARELGQSLAQEVKAATERLSLGSRDVAEALRLSKDIGRLIEAVETAVMPQWQRRELLATVKMLQRRANTAIRKLQMGQAAKKTQELLERHSKGPLIVDTVSAESLSVLVKVVRQLCEQAPSTSVLLLSPQPMGKVLCACQVAQGAMPTFTAEAWALAVCSHMGGKAWGSRVVAQGTGSTTDLEAALSIAQTYALSQL", "Fold change (+UV/-UV)": 0.625}
{"molecule": "RBM14_HUMAN (protein, UniProt Q96PK6 1-669, looked up) RNA-binding protein 14: MKIFVGNVDGADTTPEELAALFAPYGTVMSCAVMKQFAFVHMRENAGALRAIEALHGHELRPGRALVVEMSRPRPLNTWKIFVGNVSAACTSQELRSLFERRGRVIECDVVKDYAFVHMEKEADAKAAIAQLNGKEVKGKRINVELSTKGQKKGPGLAVQSGDKTKKPGAGDTAFPGTGGFSATFDYQQAFGNSTGGFDGQARQPTPPFFGRDRSPLRRSPPRASYVAPLTAQPATYRAQPSVSLGAAYRAQPSASLGVGYRTQPMTAQAASYRAQPSVSLGAPYRGQLASPSSQSAAASSLGPYGGAQPSASALSSYGGQAAAASSLNSYGAQGSSLASYGNQPSSYGAQAASSYGVRAAASSYNTQGAASSLGSYGAQAASYGAQSAASSLAYGAQAASYNAQPSASYNAQSAPYAAQQAASYSSQPAAYVAQPATAAAYASQPAAYAAQATTPMAGSYGAQPVVQTQLNSYGAQASMGLSGSYGAQSAAAATGSYGAAAAYGAQPSATLAAPYRTQSSASLAASYAAQQHPQAAASYRGQPGNAYDGAGQPSAAYLSMSQGAVANANSTPPPYERTRLSPPRASYDDPYKKAVAMSKRYGSDRRLAELSDYRRLSESQLSFRRSPTKSSLDYRRLPDAHSDYARYSGSYNDYLRAAQMHSGYQRRM", "Fold change (+UV/-UV)": 2}
{"molecule": "ZYX_HUMAN (protein, UniProt Q15942 2-572, looked up) Zyxin: AAPRPSPAISVSVSAPAFYAPQKKFGPVVAPKPKVNPFRPGDSEPPPAPGAQRAQMGRVGEIPPPPPEDFPLPPPPLAGDGDDAEGALGGAFPPPPPPIEESFPPAPLEEEIFPSPPPPPEEEGGPEAPIPPPPQPREKVSSIDLEIDSLSSLLDDMTKNDPFKARVSSGYVPPPVATPFSSKSSTKPAAGGTAPLPPWKSPSSSQPLPQVPAPAQSQTQFHVQPQPQPKPQVQLHVQSQTQPVSLANTQPRGPPASSPAPAPKFSPVTPKFTPVASKFSPGAPGGSGSQPNQKLGHPEALSAGTGSPQPPSFTYAQQREKPRVQEKQHPVPPPAQNQNQVRSPGAPGPLTLKEVEELEQLTQQLMQDMEHPQRQNVAVNELCGRCHQPLARAQPAVRALGQLFHIACFTCHQCAQQLQGQQFYSLEGAPYCEGCYTDTLEKCNTCGEPITDRMLRATGKAYHPHCFTCVVCARPLEGTSFIVDQANRPHCVPDYHKQYAPRCSVCSEPIMPEPGRDETVRVVALDKNFHMKCYKCEDCGKPLSIEADDNGCFPLDGHVLCRKCHTARAQT", "Fold change (+UV/-UV)": 0}
{"molecule": "SC23A_HUMAN (protein, UniProt Q15436 2-765, looked up) Protein transport protein …: TTYLEFIQQNEERDGVRFSWNVWPSSRLEATRMVVPVAALFTPLKERPDLPPIQYEPVLCSRTTCRAVLNPLCQVDYRAKLWACNFCYQRNQFPPSYAGISELNQPAELLPQFSSIEYVVLRGPQMPLIFLYVVDTCMEDEDLQALKESMQMSLSLLPPTALVGLITFGRMVQVHELGCEGISKSYVFRGTKDLSAKQLQEMLGLSKVPLTQATRGPQVQQPPPSNRFLQPVQKIDMNLTDLLGELQRDPWPVPQGKRPLRSSGVALSIAVGLLECTFPNTGARIMMFIGGPATQGPGMVVGDELKTPIRSWHDIDKDNAKYVKKGTKHFEALANRAATTGHVIDIYACALDQTGLLEMKCCPNLTGGYMVMGDSFNTSLFKQTFQRVFTKDMHGQFKMGFGGTLEIKTSREIKISGAIGPCVSLNSKGPCVSENEIGTGGTCQWKICGLSPTTTLAIYFEVVNQHNAPIPQGGRGAIQFVTQYQHSSGQRRIRVTTIARNWADAQTQIQNIAASFDQEAAAILMARLAIYRAETEEGPDVLRWLDRQLIRLCQKFGEYHKDDPSSFRFSETFSLYPQFMFHLRRSSFLQVFNNSPDESSYYRHHFMRQDLTQSLIMIQPILYAYSFSGPPEPVLLDSSSILADRILLMDTFFQILIYHGETIAQWRKSGYQDMPEYENFRHLLQAPVDDAQEILHSRFPMPRYIDTEHGGSQARFLLSKVNPSQTHNNMYAWGQESGAPILTDDVSLQVFMDHLKKLAVSSAA", "Fold change (+UV/-UV)": 0.5}
{"molecule": "SFPQ_HUMAN (protein, UniProt P23246 1-707, looked up) Splicing factor, proline- and …: MSRDRFRSRGGGGGGFHRRGGGGGRGGLHDFRSPPPGMGLNQNRGPMGPGPGQSGPKPPIPPPPPHQQQQQPPPQQPPPQQPPPHQPPPHPQPHQQQQPPPPPQDSSKPVVAQGPGPAPGVGSAPPASSSAPPATPPTSGAPPGSGPGPTPTPPPAVTSAPPGAPPPTPPSSGVPTTPPQAGGPPPPPAAVPGPGPGPKQGPGPGGPKGGKMPGGPKPGGGPGLSTPGGHPKPPHRGGGEPRGGRQHHPPYHQQHHQGPPPGGPGGRSEEKISDSEGFKANLSLLRRPGEKTYTQRCRLFVGNLPADITEDEFKRLFAKYGEPGEVFINKGKGFGFIKLESRALAEIAKAELDDTPMRGRQLRVRFATHAAALSVRNLSPYVSNELLEEAFSQFGPIERAVVIVDDRGRSTGKGIVEFASKPAARKAFERCSEGVFLLTTTPRPVIVEPLEQLDDEDGLPEKLAQKNPMYQKERETPPRFAQHGTFEYEYSQRWKSLDEMEKQQREQVEKNMKDAKDKLESEMEDAYHEHQANLLRQDLMRRQEELRRMEELHNQEMQKRKEMQLRQEEERRRREEEMMIRQREMEEQMRRQREESYSRMGYMDPRERDMRMGGGGAMNMGDPYGSGGQKFPPLGGGGGIGYEANPGVPPATMSGSMMGSDMRTERFGQGGAGPVGGQGPRGMGPGTPAGYGRGREEYEGPNKKPRF", "Fold change (+UV/-UV)": 0.9}
{"molecule": "SRC8_HUMAN (protein, UniProt Q14247 1-550, looked up) Src substrate cortactin: MWKASAGHAVSIAQDDAGADDWETDPDFVNDVSEKEQRWGAKTVQGSGHQEHINIHKLRENVFQEHQTLKEKELETGPKASHGYGGKFGVEQDRMDKSAVGHEYQSKLSKHCSQVDSVRGFGGKFGVQMDRVDQSAVGFEYQGKTEKHASQKDYSSGFGGKYGVQADRVDKSAVGFDYQGKTEKHESQRDYSKGFGGKYGIDKDKVDKSAVGFEYQGKTEKHESQKDYVKGFGGKFGVQTDRQDKCALGWDHQEKLQLHESQKDYKTGFGGKFGVQSERQDSAAVGFDYKEKLAKHESQQDYSKGFGGKYGVQKDRMDKNASTFEDVTQVSSAYQKTVPVEAVTSKTSNIRANFENLAKEKEQEDRRKAEAERAQRMAKERQEQEEARRKLEEQARAKTQTPPVSPAPQPTEERLPSSPVYEDAASFKAELSYRGPVSGTEPEPVYSMEAADYREASSQQGLAYATEAVYESAEAPGHYPAEDSTYDEYENDLGITAVALYDYQAAGDDEISFDPDDIITNIEMIDDGWWRGVCKGRYGLFPANYVELRQ", "Fold change (+UV/-UV)": 0.8}
